Substitutions are numbered along the chain they refer to. Names and notes keep the numbering of the source.
T1: human IL-18BP (Homo sapiens, UniProt O95998)
T1 construct: His
T1 sequence (O95998 31-194): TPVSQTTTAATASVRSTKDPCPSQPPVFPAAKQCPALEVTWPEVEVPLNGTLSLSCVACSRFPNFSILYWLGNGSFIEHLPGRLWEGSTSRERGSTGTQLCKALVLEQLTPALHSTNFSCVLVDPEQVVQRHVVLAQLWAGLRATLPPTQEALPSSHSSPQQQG

B1: 44 (protein)
chain: YAGKLKSKLSVIRNLNDQVLFIDQGNRPLFEDMTDSDCRDNAPRTIFIISMYADAQPRGMAVTISVKCEKISTLSCENKIISFKEMNPPDNIKDTKSDIIFFQRSVPGHDNKMQFESSSYEGYFLACEKERDLFKLILKKEDELGDRSIMFTVQNED
B2: 45 (protein)
chain: B1 chain with A2F, D54A
B3: 49 (protein)
chain: B1 chain with A2F, C38S, C68S, K70C, C76S, C127S
B4: 56 (protein)
chain: B1 chain with A2F, C38S, A55S, C76S, C127S
B5: C174: IL-18 polypeptide: K8L, E6K, V11I, C38A, K53A, T63A, C76A, C127A (protein)
chain: B1 chain with A2F, K8L, V11I, C38A, A55S, T63A, C76A, C127A
B6: C176: IL-18 polypeptide: E6K, V11I, C38A, I49M, K53A, T63A, C76A, C127A (protein)
chain: B1 chain with A2F, V11I, C38A, I49M, A55S, T63A, C76A, C127A
B7: C177: IL-18 polypeptide: E6K, V11I, C38A, I49R, K53A, T63A, C76A, C127A (protein)
chain: B1 chain with A2F, V11I, C38A, I49R, A55S, T63A, C76A, C127A
B8: C178: IL-18 polypeptide: E6K, V11I, C38A, K53A, T63A, C76A, Q103R, C127A (protein)
chain: B1 chain with A2F, V11I, C38A, A55S, T63A, C76A, Q103R, C127A
B9: C179: IL-18 polypeptide: E6K, K8E, V11I, C38A, K53A, T63A, C76A, Q103R, C127A (protein)
chain: B1 chain with A2F, K8E, V11I, C38A, A55S, T63A, C76A, Q103R, C127A
B10: C181: IL-18 polypeptide: E6K, V11I, C38A, K53A, T63A, C76A, C127A, V153E (protein)
chain: B1 chain with A2F, V11I, C38A, A55S, T63A, C76A, C127A, V153E
B11: C182: IL-18 polypeptide: E6K, V11I, C38A, K53A, T63A, C76A, C127A, V153Y (protein)
chain: B1 chain with A2F, V11I, C38A, A55S, T63A, C76A, C127A, V153Y
B12: SEQ ID NO: 69: IL-18 polypeptide: E6K, V11I, C38A, M51G, K53A, T63A, C76A, C127A (protein)
chain: B1 chain with A2F, V11I, C38A, M51G, A55S, T63A, C76A, C127A
B13: C184: IL-18 polypeptide: E6R, V11I, C38A, K53A, T63A, C76A, C127A (protein)
chain: B1 chain with A2F, K6R, V11I, C38A, A55S, T63A, C76A, C127A
B14: SEQ ID NO: 72: IL-18 polypeptide: N-terminal 4xG, E6K, V11I, C38A, K53A, T63A, C76A, C127A (protein)
chain: GGGGYFGKLKSKLSIIRNLNDQVLFIDQGNRPLFEDMTDSDARDNAPRTIFIISMYADSQPRGMAVAISVKCEKISTLSAENKIISFKEMNPPDNIKDTKSDIIFFQRSVPGHDNKMQFESSSYEGYFLAAEKERDLFKLILKKEDELGDRSIMFTVQNED
modifications: N-terminal 4xG
notes: IL-18 polypeptide: N-terminal 4xG, E6K, V11I, C38A, K53A, T63A, C76A, C127A
B15: SEQ ID NO: 71: IL-18 polypeptide: N-terminal G, E6K, V11I, C38A, K53A, T63A, C76A, C127A (protein)
chain: GYFGKLKSKLSIIRNLNDQVLFIDQGNRPLFEDMTDSDARDNAPRTIFIISMYADSQPRGMAVAISVKCEKISTLSAENKIISFKEMNPPDNIKDTKSDIIFFQRSVPGHDNKMQFESSSYEGYFLAAEKERDLFKLILKKEDELGDRSIMFTVQNED
modifications: N-terminal G
notes: IL-18 polypeptide: N-terminal G, E6K, V11I, C38A, K53A, T63A, C76A, C127A
B16: C142: IL-18 polypeptide: Y1M, E6K, V11I, C38A, K53A, T63A, C76A, C127A (protein)
chain: B1 chain with Y1M, A2F, V11I, C38A, A55S, T63A, C76A, C127A
B17: SEQ ID NO: 70: IL-18 polypeptide: N-terminal G, E6K, V11I, C38A, M51G, K53A, T63A, C76A, C127A (protein)
chain: B15 chain with M52G
modifications: N-terminal G
notes: IL-18 polypeptide: N-terminal G, E6K, V11I, C38A, M51G, K53A, T63A, C76A, C127A
B18: 6 (protein)
chain: B1 chain with A2F, V11I, C38A, A55S, T63A, C68A, C76A, D98C, C127A
B19: 5 (protein)
chain: B1 chain with A2F, V11I, C38A, A55S, T63A, C68A, C76A, M86C, C127A

Tests used:
human IL-18BP = molecular target: T1, human IL-18BP; test: IL-18BP binding alphaLISA assay (Example 4, used in Example 22B); settings: IL-18BP AlphaLISA
Protocol: A human IL-18BP AlphaLISA Assay Kit is used to determine the binding affinity of each immunocytokine and IL-18 variant for IL-18BP, which detected the presence of free form IL-18BP.
Sixteen three-fold serial dilutions of IL-18 analytes are prepared in aMEM medium supplemented with 20% FCS, Glutamax, and 25 µM β-mercaptoethanol in the presence of 5 ng/mL of His-tagged human IL-18BP. Final IL-18 analytes concentration range from 2778 nM to […].
After 1 hr incubation at room temperature, free IL-18BP levels are measured using a […]. In a 384 well OPTIplate, 5 μL of 5× Anti-IL-18BP acceptor beads are added to 7.5 μL of an IL-18/IL-18BP mix. After 30 min incubation at room temperature with shaking, 5 μL of biotinylated Anti-IL-18BP antibodies are added to each well. The plate is incubated further for 1 hr at room temperature. Under subdued light, 12.5 μL of 2× streptavidin (SA) donor beads are pipetted into each well, and the wells are incubated with shaking for an additional 30 min at room temperature. The AlphaLisa signal is then measured on an Enspire plate reader with 680 and 615 nm as excitation and emission wavelengths, respectively. The dissociation constant (KD) is calculated based on a variable slope, four parameter analysis using GraphPad PRISM software.
An IL-18 binding protein AiphaLISA experiment substantially as described in Example 4 was performed on IL-18 polypeptide which can be incorporated into immunocytokine compositions as provided herein to assess ability to bind to IL-181BP. It is expected that the IL-18 polypeptides provided below would behave analogously to C086 (SEQ ID NO: 30) when incorporated into an immunocytokine composition as those otherwise provided herein.

NK-92 cells [1] = test: IFNγ induction cellular assay in NK-92 cells (Example 4, used in Example 22C); type: cell-based, human; settings: IFNg stimulation in NK92 cells
Protocol: The ability of immunocytokines and IL-18 polypeptides provided herein are assessed for ability to induce IFN[…] in a cellular assay according to the protocol below.
The NK cell line NK-92 derived from a patient with lymphoma (ATCC® CRL-2407™) is cultured in aMEM medium supplemented with 20% FCS, Glutamax, 25 µM B-mercaptoethanol, and 100 IU/mL of recombinant human IL-2.
On the day of experiment, cells are harvested and washed with aMEM medium without IL-2 and containing 1 ng/mL of recombinant human IL-12. After counting, cells are seeded at 100,000 cells/well in a 384 well titer plate and incubated at 37° C./5% CO2. Sixteen 4-fold serial dilutions of IL-18 analytes are prepared in aMEM medium, and 1 ng/mL of IL-12 were added to the NK-92 cells. Final IL-18 analyte concentrations range from 56 nM to 5×10^−5 pM.
After incubating the cells for 16-20 hr at 37° C./5% CO2, 5 μL of supernatant is carefully transferred to a 384 microwell OptiPlate. IFNγ levels are measured using a human IFNγ AlphaLISA Assay Kit. Briefly, 10 μL of 2.5× AlphaLISA Anti-IFNγ acceptor beads and biotinylated antibody anti-IFNγ mix are added to the 5 μL of NK-92 supernatants. The mixtures are incubated for 1 hr at room temperature with shaking. Under subdued light, 2.5 μL of 2× streptavidin (SA) donor beads are pipetted into each well, and the wells are incubated for 30 min at room temperature with shaking. AlphaLISA signals are then measured on an EnSpire™ plate reader using 680 nm and 615 nm as excitation and emission wavelengths, respectively. Half maximal effective concentrations (EC50) are calculated based on a variable slope and four parameter analysis using GraphPad PRISM software.
(§1) The experiments described in Example 4 for determination of IFNg stimulation in NK92 cells (and inhibition by IL-18 BP) were performed substantially as described on IL-18 polypeptides in order to assess their activities and their suitability for incorporation into immunocytokine compositions. It is expected that the IL-18 polypeptides provided below would behave analagously to C086 (SEQ ID NO: 30) when incorporated into an immunocytokine composition as those otherwise provided herein.

NK-92 cells [2] = test: IL-18 binding protein inhibition cellular assay in NK-92 cells (Example 4, used in Example 22C); type: cell-based, human; settings: inhibition by IL-18BP of IFNg stimulation in NK92 cells
Protocol: The NK cell line NK-92 derived from a patient with lymphoma (ATCC® CRL-2407™) is cultured in aMEM medium supplemented with 20% FCS-Glutamax, 25 µM B-mercaptoethanol, and 100 IU/mL of recombinant human IL-2.
On the day of experiment, cells are harvested and washed with aMEM medium without IL-2 and containing 1 ng/mL of recombinant human IL-12. After counting, the cells are seeded at 100,000 cells/well in a 384 well titer plate and incubated at 37° C./5% CO2. Sixteen 2-fold serial dilutions of Fc-fused human IL-18 binding protein isoform a (IL-18BPa) are prepared in aMEM medium. 1 ng/mL of IL-12 containing 2 nM of each IL-18 polypeptide variant is added to the NK-92 cells. The final IL-18 analyte concentration is 1 nM, and the final IL-18BPa concentration ranged from 566 nM to […].
After incubating the cells for 16-20 hr at 37° C./5% CO2, 5 μL of the supernatant is carefully transferred to a 384 microwell OptiPlate. IFNγ levels are measured using a human IFNγ AlphaLISA Assay Kit. Briefly, 10 μL of 2.5× AlphaLISA anti-IFNγ acceptor beads and biotinylated antibody anti-IFNγ mix are added to 5 μL of NK-92 supernatants. The mixtures are incubated for 1 hr at room temperature with shaking. Under subdued light, 2.5 μL of 2×SA donor beads are pipetted in each well and incubated for 30 min at room temperature with shaking. AlphaLISA signals are then measured on an EnSpire™ plate reader using 680 nm and 615 nm as excitation and emission wavelengths, respectively. Half maximal inhibitory concentrations (IC50) are calculated based on a variable slope and four parameter analysis using GraphPad PRISM software.
as §1

| Molecule | Kd (human IL-18BP) [nM] | EC50 (NK-92 cells [1]) [nM] | IC50 (NK-92 cells [2]) [nM] |
| --- | --- | --- | --- |
| B1 | > 1000 | > 1000 |  |
| B2 | > 1000 | 30 |  |
| B3 | > 1000 | 58.5 |  |
| B4 | 436 |  |  |
| B5 | 0.14 |  |  |
| B6 | 25.8 |  |  |
| B7 | > 2800 |  |  |
| B8 | > 2800 |  |  |
| B9 | > 2800 |  |  |
| B10 | > 2800 |  |  |
| B11 | > 2800 |  |  |
| B12 | > 2800 |  |  |
| B13 | 5.46 |  |  |
| B14 | > 2800 |  |  |
| B15 | > 2800 |  |  |
| B16 | 2.25 |  |  |
| B17 | > 2800 |  |  |
| B18 |  | 1.37 | 5.85 |
| B19 |  | 0.075 | 62.4 |
